The results in this text go back to article PMC3864903.

For assay [1], the target named is rNav1.4 voltage-gated sodium channel α subunit (rat) (UniProt P15390).
The target is the same in assay [2]. This is another data set of the same source.
Assay [3] shares this target. The source holds these as a separate data set.
For assay [4] the target is unchanged. This is another data set of the same source.

In assay [1], “rNavβ1 point mutant C43A (from UniProt Q00954 19-218) (natural protein)” came in with a Use-dependent current decline on repetitive depolarisations at 1 Hz (10% after the second pulse, cumulative rundown 20%) of 20% and a Use-dependent current rundown on repetitive depolarisations at 5 Hz (data not shown) of 20%. The Slowing of the current recovery after 1 ms, against WT β1 in assay [2] amounted to 95%. Besides, in assay [3], the Recovery from inactivation F (fast) amounted to 0.89, the Recovery from inactivation τ (fast) was 2.7 ms and the Recovery from inactivation τ (slow) was found to be 636 ms. In assay [4], this substance showed an Activation V1/2 of sodium currents, two electrode voltage clamp, co-expression in oocytes of -29 mV and an Inactivation V1/2 (steady-state inactivation) of -59.1 mV.
For “rNavβ1 point mutant G33M (from UniProt Q00954 19-218) (natural protein)”, in assay [3], the Inactivation rate τ (inac) of the peak current at −20 mV worked out at 0.46 ms and the Recovery from inactivation τ (slow) worked out at 760 ms. In assay [4], this substance registered an Activation V1/2 of sodium currents, two electrode voltage clamp, co-expression in oocytes of -32.5 mV and an Inactivation V1/2 (steady-state inactivation) of -56 mV.
In turn, “rNavβ1 point mutant R89A (from UniProt Q00954 19-218) (natural protein)” had a Slowing of the current recovery after 1 ms, against WT β1 in assay [2] of 90%. Also, in assay [3], the Inactivation rate τ (inac) of the peak current at −20 mV amounted to 2.6 ms, the Recovery from inactivation F (fast) came to 0.92, the Recovery from inactivation τ (fast) worked out at 2.3 ms and the Recovery from inactivation τ (slow) turned out to be 376 ms. In assay [4], this substance had an Activation V1/2 of sodium currents, two electrode voltage clamp, co-expression in oocytes of -33 mV and an Inactivation V1/2 (steady-state inactivation) of -62.6 mV.
On to “rNavβ1 point mutant Y32A (from UniProt Q00954 19-218) (natural protein)”, for which, in assay [3], the Inactivation rate τ (inac) of the peak current at −20 mV was 0.48 ms and the Recovery from inactivation τ (slow) is 743 ms. In assay [4], this substance displayed an Activation V1/2 of sodium currents, two electrode voltage clamp, co-expression in oocytes of -34 mV and an Inactivation V1/2 (steady-state inactivation) of -56 mV.
“rNavβ1 voltage-gated sodium channel accessory subunit, wild type (from UniProt Q00954 19-218) (natural protein)” showed a Current recovery from inactivation after a recovery interval of 1 ms in assay [2] of 50%. In assay [3], the Inactivation rate τ (inac) of the peak current at −20 mV was found to be 0.6 ms, the Recovery from inactivation F (fast) came out at 0.93, the Recovery from inactivation τ (fast) was 1.7 ms and the Recovery from inactivation τ (slow) stood at 236 ms. In assay [4], this substance registered an Activation V1/2 of sodium currents, two electrode voltage clamp, co-expression in oocytes of -33.4 mV and an Inactivation V1/2 (steady-state inactivation) of -61.8 mV.
